Values belong to the binder of their own block, whether it stands above or below them.
B3: Bacillus subtilis cysteine desulfurase SufS (enzyme)
chain: MNITDIREQFPILHQQVNGHDLVYLDSAATSQKPRAVIETLDKYYNQYNSNVHRGVHTLGTRATDGYEGAREKVRKFINAKSMAEIIFTKGTTTSLNMVALSYARANLKPGDEVVITYMEHHANIIPWQQAVKATGATLKYIPLQEDGTISLEDVRETVTSNTKIVAVSHVSNVLGTVNPIKEMAKIAHDNGAVIVVDGAQSTPHMKIDVQDLDCDFFALSSHKMCGPTGVGVLYGKKALLENMEPAEFGGEMIDFVGLYESTWKELPWKFEAGTPIIAGAIGLGAAIDFLEEIGLDEISRHEHKLAAYALERFRQLDGVTVYGPEERAGLVTFNLDDVHPHDVATVLDAEGIAVRAGHHCAQPLMKWLDVTATARASFYLYNTEEEIDKLVEALQKTKEYFTNVF
modifications: pyridoxal-5'-phosphate bound to Lys224 as an aldimine; Cys361-persulfide (in the crystal)
notes: cysteine desulfurase SufS of Bacillus subtilis; The structure 'could be built to completeness'; also called BsSufS
B4: Bacillus subtilis scaffold protein SufU (natural protein)
chain: MSFNANLDTLYRQVIMDHYKNPRNKGVLNDSIVVDMNNPTCGDRIRLTMKLDGDIVEDAKFEGEGCSISMASASMMTQAIKGKDIETALSMSKIFSDMMQGKEYDDSIDLGDIEALQGVSKFPARIKCATLSWKALEKGVAKEEGGN
notes: Fe-S cluster scaffold protein SufU of Bacillus subtilis; also called BsSufU

Experiments:
[1] = molecular target: B3; experiment: MST; labelled BsFra (0.25 μM) mixed 1:1 with a dilution series of the partner (560 μM to 0.030 μM); 25 mM Tris-Cl, 100 mM NaCl, 10 mM 2-mercaptoethanol, pH 7.5; 25°C; Hill model; average of three measurements; details: both partners purified
[2] = molecular target: B4; experiment: as above; details: both partners purified
BsSufS/BsSufU complex = molecular target: T1, BsSufS/BsSufU complex (Bacillus subtilis, UniProt O32164 1-406; O32163 1-147); experiment: as above; details: both partners purified
T1 construct: cysteine desulfurase SufS of Bacillus subtilis, as the chain of m1; scaffold protein SufU of Bacillus subtilis, as the chain of m2; SufS is described as a homodimer; also called BsSufU/BsSufS; SufS/SufU complex; copies: 2 +

[3] = molecular target: B3; experiment: HDX-MS; 60 μM of each component in 25 mM Tris-Cl pH 7.5, 100 mM NaCl; exchange in D2O buffer at 25°C for 15, 30, 60 or 600 s; online pepsin digestion; details: both partners purified
[4] = molecular target: B4; experiment: as above; details: both partners purified
[5] = molecular target: the molecule itself; experiment: crystal structure; BsSufS crystallised at 20 mg/ml in 0.1 M HEPES pH 7.5, 50% (v/v) PEG 400, 20°C; one molecule in the asymmetric unit, homodimer across the crystallographic symmetry axis; 1.7 Å

Kd [1]: 50.6 ± 17.4 µM
Kd [2]: 57.4 ± 13.8 µM
Kd (BsSufS/BsSufU complex): 32.5 ± 3.6 µM
B1: fluorophore-labelled BsFra (natural protein, Bacillus subtilis)
chain: MDVFSEYLAGIADPFHRERTEEVLTWIKNKYPNLHTEIKWNQPMFTDHGTFIIGFSVSKKHLAVAPEKVTIAHVEDDIVKAGYDYTEQLIRIPWNGPVDYTLLEKMIEFNILDKADCSTFWRK
modifications: labelled with the Monolith NT.115 Protein Labeling Kit RED MALEIMID (cysteine-reactive)
notes: frataxin homolog Fra (formerly YdhG) of Bacillus subtilis, as the chain of m3; Same protein as m3, with a red fluorophore on cysteine for MST; also called labeled BsFra; fluorophore-tagged frataxin

binding result [3]: binds
binding result [4]: binds
B2: Bacillus subtilis frataxin homolog Fra (natural protein)
chain: MDVFSEYLAGIADPFHRERTEEVLTWIKNKYPNLHTEIKWNQPMFTDHGTFIIGFSVSKKHLAVAPEKVTIAHVEDDIVKAGYDYTEQLIRIPWNGPVDYTLLEKMIEFNILDKADCSTFWRK
notes: frataxin homolog Fra (formerly YdhG) of Bacillus subtilis; Unlabelled form, used in H/DX and activity assays; also called BsFra; YdhG (former name)

Binder: B3
stoichiometry N [5]: 2

Binder: B4
binding result [3]: binds
